Where a SMILES comes first, the peptide text is derived from it. [ ]: non-standard residue; d: D form. The star is where a group is joined. X1 = O=C(CCCCCCCn1cnc2c(Br)c(Br)c(Br)c(Br)c21)*
Legend:
Assay in all cases: Kinase panel residual activity
Format in all cases: biochemical
Conditions in all cases: compound at 1 micromolar
MAP4K3 = biological target: T1, MAP4K3 (Homo sapiens, UniProt Q8IVH8)
T1 sequence (Q8IVH8 1-894): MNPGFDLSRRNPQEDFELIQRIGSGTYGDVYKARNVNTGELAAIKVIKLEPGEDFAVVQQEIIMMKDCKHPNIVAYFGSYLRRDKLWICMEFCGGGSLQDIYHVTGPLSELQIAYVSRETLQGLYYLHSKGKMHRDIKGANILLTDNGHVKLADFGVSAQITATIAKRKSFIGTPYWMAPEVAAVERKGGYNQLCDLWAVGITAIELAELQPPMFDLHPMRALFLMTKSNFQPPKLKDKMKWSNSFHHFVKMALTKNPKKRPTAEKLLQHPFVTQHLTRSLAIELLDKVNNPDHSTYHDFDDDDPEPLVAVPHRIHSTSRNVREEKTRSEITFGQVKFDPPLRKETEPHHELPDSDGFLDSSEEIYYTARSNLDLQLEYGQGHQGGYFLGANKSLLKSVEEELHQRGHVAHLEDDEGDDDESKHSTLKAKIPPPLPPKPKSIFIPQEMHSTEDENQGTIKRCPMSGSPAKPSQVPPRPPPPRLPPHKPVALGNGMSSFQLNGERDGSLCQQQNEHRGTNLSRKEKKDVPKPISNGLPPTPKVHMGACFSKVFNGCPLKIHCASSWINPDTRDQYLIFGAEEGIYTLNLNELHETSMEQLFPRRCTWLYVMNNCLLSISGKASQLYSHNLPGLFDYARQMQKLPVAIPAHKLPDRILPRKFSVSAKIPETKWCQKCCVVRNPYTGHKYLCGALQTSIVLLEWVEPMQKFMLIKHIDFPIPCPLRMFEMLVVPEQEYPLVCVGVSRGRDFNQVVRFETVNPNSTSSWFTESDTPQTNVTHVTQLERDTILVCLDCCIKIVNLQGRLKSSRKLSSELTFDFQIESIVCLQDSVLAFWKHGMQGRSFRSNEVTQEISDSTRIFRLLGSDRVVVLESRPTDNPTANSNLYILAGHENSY

MKK6 = biological target: T2, MKK6 (Homo sapiens, UniProt P52564)
T2 sequence (P52564 1-334): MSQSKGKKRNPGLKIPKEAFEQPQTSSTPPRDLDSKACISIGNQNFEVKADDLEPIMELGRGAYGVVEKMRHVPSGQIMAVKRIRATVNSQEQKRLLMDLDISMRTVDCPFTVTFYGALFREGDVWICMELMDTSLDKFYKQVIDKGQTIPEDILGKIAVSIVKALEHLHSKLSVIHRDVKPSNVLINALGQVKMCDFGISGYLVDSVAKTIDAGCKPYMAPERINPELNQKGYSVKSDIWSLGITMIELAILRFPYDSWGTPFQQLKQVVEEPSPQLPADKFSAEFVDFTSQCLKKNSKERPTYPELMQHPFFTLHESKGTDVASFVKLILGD

MINK1 = MINK1 (Homo sapiens, UniProt Q8N4C8)
Sequence of MINK1 (Q8N4C8 whole entry, species assumed): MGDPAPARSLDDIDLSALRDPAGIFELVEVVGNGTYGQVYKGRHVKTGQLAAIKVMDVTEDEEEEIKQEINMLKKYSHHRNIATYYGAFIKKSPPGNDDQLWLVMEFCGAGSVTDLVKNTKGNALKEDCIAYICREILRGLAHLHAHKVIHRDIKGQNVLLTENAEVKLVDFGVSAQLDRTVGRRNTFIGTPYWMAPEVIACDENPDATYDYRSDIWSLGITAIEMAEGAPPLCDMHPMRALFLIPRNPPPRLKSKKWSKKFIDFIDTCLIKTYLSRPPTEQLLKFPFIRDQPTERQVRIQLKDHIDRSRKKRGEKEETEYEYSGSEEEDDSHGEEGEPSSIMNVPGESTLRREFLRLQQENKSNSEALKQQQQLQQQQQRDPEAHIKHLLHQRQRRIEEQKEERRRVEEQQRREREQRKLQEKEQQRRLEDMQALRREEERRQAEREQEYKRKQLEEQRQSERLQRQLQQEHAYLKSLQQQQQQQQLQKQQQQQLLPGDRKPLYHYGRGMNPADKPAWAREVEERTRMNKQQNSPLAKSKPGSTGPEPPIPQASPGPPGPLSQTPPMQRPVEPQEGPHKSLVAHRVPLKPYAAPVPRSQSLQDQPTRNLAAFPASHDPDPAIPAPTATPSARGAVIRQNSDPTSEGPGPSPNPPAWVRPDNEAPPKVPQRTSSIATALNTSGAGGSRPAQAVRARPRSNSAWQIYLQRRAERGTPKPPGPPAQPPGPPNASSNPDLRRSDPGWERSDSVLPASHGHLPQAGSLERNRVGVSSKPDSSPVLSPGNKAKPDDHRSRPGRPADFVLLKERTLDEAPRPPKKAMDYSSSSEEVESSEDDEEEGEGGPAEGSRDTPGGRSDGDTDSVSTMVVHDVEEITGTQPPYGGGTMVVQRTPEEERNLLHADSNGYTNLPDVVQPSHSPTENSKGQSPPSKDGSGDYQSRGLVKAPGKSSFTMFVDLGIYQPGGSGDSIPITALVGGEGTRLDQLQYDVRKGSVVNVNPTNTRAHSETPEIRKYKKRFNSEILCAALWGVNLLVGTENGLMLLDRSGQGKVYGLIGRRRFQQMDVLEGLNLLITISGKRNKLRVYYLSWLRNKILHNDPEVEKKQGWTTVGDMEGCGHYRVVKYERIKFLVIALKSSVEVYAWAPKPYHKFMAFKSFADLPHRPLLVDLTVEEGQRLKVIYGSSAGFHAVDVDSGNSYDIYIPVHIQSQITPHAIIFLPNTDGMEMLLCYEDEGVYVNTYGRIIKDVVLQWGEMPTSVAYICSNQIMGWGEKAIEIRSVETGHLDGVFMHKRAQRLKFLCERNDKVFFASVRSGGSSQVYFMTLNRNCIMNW

WNK1 = WNK1 (Homo sapiens, UniProt Q9H4A3)
CHK2 = CHK2 (Homo sapiens, UniProt O96017)
Sequence of CHK2 (O96017 whole entry, species assumed): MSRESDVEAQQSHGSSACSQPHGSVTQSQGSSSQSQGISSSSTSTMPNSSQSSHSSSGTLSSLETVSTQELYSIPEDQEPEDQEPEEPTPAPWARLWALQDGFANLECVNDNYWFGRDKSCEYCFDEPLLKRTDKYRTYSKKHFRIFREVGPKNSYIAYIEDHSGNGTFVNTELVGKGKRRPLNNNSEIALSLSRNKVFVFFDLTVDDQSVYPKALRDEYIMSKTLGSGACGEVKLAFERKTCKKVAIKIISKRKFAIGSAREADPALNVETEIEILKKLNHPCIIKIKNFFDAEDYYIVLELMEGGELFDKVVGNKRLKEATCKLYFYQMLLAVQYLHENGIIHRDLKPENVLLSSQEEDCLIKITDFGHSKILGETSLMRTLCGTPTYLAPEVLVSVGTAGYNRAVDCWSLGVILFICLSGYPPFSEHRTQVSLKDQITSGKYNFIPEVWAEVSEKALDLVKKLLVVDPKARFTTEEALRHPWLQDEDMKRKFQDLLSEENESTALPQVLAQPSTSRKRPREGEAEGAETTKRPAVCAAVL

HIPK2 = HIPK2 (Homo sapiens, UniProt Q9H2X6)
Sequence of HIPK2 (Q9H2X6 whole entry, species assumed): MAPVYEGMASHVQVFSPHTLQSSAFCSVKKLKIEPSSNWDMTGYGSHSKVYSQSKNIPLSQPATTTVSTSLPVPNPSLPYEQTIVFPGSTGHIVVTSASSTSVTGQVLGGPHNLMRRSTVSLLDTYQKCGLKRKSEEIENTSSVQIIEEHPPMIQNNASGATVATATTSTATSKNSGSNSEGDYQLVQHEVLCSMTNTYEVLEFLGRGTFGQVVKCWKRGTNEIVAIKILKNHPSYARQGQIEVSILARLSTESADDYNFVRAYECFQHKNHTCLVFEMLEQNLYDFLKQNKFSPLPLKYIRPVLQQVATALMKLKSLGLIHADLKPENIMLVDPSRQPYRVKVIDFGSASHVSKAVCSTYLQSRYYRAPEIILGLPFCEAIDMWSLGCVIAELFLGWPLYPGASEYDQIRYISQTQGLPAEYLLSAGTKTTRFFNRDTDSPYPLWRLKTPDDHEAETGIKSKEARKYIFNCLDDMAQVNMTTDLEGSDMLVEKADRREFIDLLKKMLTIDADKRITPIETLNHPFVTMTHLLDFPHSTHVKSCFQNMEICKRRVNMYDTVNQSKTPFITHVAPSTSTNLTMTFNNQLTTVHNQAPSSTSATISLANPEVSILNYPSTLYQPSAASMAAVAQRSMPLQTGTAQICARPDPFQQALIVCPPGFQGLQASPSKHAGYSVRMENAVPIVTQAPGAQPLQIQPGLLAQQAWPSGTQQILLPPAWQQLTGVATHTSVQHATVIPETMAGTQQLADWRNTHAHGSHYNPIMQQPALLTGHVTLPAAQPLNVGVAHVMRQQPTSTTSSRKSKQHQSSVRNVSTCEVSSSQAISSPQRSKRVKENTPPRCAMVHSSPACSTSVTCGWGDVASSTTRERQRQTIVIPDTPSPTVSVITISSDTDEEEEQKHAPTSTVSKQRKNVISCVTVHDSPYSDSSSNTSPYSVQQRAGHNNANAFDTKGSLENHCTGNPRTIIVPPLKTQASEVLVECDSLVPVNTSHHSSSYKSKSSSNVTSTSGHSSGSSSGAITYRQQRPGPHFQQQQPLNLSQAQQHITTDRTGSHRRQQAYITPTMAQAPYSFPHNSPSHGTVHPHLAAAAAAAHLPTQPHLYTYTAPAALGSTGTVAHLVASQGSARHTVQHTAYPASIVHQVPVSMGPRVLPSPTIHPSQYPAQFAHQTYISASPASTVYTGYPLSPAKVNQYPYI

PRAK = biological target: T3, PRAK (Homo sapiens, UniProt Q8IW41)
T3 sequence (Q8IW41 1-473): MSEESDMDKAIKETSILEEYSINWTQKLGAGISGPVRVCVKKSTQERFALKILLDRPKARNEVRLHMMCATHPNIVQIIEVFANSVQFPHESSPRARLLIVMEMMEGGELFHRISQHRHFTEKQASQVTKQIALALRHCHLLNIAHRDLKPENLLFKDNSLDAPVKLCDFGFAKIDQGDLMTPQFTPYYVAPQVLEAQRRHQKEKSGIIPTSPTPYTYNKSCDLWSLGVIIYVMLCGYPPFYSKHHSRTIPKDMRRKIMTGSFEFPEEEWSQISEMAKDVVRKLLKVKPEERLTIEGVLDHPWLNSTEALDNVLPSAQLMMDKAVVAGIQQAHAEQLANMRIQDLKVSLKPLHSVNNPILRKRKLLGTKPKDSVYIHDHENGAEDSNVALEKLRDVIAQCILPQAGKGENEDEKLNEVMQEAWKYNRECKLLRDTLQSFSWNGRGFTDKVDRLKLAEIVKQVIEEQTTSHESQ

DDR2 = biological target: T4, DDR2 (Homo sapiens, UniProt Q16832)
T4 sequence (Q16832 22-855): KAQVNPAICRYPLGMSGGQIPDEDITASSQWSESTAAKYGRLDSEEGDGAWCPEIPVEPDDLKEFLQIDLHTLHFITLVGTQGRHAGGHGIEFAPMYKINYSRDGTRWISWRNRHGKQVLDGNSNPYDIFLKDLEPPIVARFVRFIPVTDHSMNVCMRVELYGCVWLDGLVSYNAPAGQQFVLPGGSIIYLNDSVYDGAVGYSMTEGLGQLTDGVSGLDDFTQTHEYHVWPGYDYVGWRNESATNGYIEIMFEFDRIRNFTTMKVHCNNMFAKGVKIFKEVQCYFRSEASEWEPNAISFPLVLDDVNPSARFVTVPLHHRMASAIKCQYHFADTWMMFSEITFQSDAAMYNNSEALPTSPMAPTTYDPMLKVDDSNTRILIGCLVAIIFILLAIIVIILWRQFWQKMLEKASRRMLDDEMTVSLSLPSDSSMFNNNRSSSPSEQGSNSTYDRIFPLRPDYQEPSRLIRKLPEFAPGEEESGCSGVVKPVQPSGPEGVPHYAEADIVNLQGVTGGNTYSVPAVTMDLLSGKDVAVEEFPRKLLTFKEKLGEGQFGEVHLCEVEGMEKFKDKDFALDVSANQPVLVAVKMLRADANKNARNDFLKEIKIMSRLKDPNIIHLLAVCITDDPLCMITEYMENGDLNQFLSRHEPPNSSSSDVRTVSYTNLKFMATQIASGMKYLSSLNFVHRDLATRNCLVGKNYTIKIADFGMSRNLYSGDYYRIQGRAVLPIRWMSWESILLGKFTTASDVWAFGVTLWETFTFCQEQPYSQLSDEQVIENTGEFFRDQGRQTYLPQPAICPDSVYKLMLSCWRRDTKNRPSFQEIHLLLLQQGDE

With `NCCCC[C@H](NC(=O)[C@H](CC(=O)O)NC(=O)[C@H](CC(=O)O)NC(=O)[C@H](CC(=O)O)NC(=O)[C@H](CC(=O)O)NC(=O)[C@H](CC(=O)O)NC(=O)[C@@H](CC(=O)O)NC(=O)CCCCCCCn1cnc2c(Br)c(Br)c(Br)c(Br)c21)C(=O)O` [TBBI-OcA-(D-Asp)-(L-Asp)5-(L-Lys)-OH] (X1-[dD]DDDDDK-OH) the remaining activity at 1 µM (MAP4K3) was 86%, the remaining activity at 1 µM (MKK6) was 82% and the remaining activity at 1 µM (MINK1) was 139%. The remaining activity at 1 µM (WNK1) was 88%, the remaining activity at 1 µM (CHK2) was 101% and the remaining activity at 1 µM (HIPK2) was 36%. It also gave a remaining activity at 1 µM (PRAK) of 74% and a remaining activity at 1 µM (DDR2) of 109%.
